Results published in US20180147273A1 (Harvard, published 2018).

Target: T1, VipB protein (Vibrio cholerae, VCA0108) (Vibrio cholerae)
T1 construct: GenBank NP_232509; The experiments used strain 2740-80; also called 55 kDa band; Band A
T1 chain: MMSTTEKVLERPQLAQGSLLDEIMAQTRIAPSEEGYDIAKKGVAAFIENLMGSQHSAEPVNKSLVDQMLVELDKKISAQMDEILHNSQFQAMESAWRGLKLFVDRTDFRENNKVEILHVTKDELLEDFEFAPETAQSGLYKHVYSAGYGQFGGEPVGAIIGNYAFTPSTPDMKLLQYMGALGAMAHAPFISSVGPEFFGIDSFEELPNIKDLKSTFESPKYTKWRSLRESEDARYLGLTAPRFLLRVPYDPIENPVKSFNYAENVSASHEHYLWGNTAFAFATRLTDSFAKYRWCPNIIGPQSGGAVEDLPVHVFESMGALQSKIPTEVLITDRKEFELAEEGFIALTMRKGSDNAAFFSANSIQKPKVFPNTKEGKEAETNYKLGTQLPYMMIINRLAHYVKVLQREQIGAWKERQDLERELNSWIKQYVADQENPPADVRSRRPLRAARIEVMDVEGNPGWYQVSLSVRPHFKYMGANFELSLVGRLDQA
Assay: purified sheath separated by SDS-PAGE; bands identified by MS

B1: VipA protein (Vibrio cholerae, VCA0107) (other)
chain: MSKEGSVAPKERINIKYIPATGDAQAEVELPLKTLVVGDFKGHAEQTPLEERATVTVDKNNFEAVMRESELKITATVKNKLTDDENAELPVELNFKSLADFAPDAVASQVPELKKLIELREALVALKGPLGNIPAFRERLQSLLNSEESREKLLAELNLLSGQEEPQA
notes: GenBank NP_232508; The experiments used strain 2740-80; also called WT VipA; 20 kDa band
- binding result: binds
